To fix the notation:
B1: Intersectin-1, residues 909 to 971; numbered along this chain, Q15811 (parent)
chain: QGEKVEGLQAQALYPWRAKKDNHLNFNKNDVITVLEQQDMWWFGEVQGQKGWFPKSYVKLISG

± gives the uncertainty stated by the source.

The variants in the data set derive from B1. Kind of data set: abundance fitness (aPCA) (normalised: wild type 0, dead -1); higher = more abundant; growth selection in yeast, the domain comes from the species named. Particulars: Homo sapiens.
On to QGEKVEGLQAQALYPWRAKKVNHLNFNKNDVITVLEQQDMWWFGEVQGQKGWFPKSYVKLISG, for which the abundance fitness was found to be 0.007 ± 0.051.

Consider QGEKVEGLQAQALYPWRAKKQNHLNFNKNDVITVLEQQDMWWFGEVQGQKGWFPKSYVKLISG, for which the abundance fitness was 0.145 ± 0.17.

Consider QGEKVEGLQAQALYPWRAKKLNHLNFNKNDVITVLEQQDMWWFGEVQGQKGWFPKSYVKLISG, for which the abundance fitness was -0.012 ± 0.063.

Regarding QGEKVEGLQAQALYPWRAKKGNHLNFNKNDVITVLEQQDMWWFGEVQGQKGWFPKSYVKLISG, the abundance fitness is -0.068 ± 0.042.

As to QGEKVEGLQAQALYPWRAKKMNHLNFNKNDVITVLEQQDMWWFGEVQGQKGWFPKSYVKLISG, the abundance fitness was -0.434 ± 0.2.

In the case of QGEKVEGLQAQALYPWRAKKPNHLNFNKNDVITVLEQQDMWWFGEVQGQKGWFPKSYVKLISG, the abundance fitness was -0.005 ± 0.057.

As for QGEKVEGLQAQALYPWRAKKYNHLNFNKNDVITVLEQQDMWWFGEVQGQKGWFPKSYVKLISG, the abundance fitness is -0.102 ± 0.07.

As to QGEKVEGLQAQALYPWRAKKFNHLNFNKNDVITVLEQQDMWWFGEVQGQKGWFPKSYVKLISG, the abundance fitness is -0.131 ± 0.075.

With QGEKVEGLQAQALYPWRAKKSNHLNFNKNDVITVLEQQDMWWFGEVQGQKGWFPKSYVKLISG, the abundance fitness was -0.071 ± 0.05.

Turning to QGEKVEGLQAQALYPWRAKKWNHLNFNKNDVITVLEQQDMWWFGEVQGQKGWFPKSYVKLISG, the abundance fitness is -0.112 ± 0.12.

Consider QGEKVEGLQAQALYPWRAKKANHLNFNKNDVITVLEQQDMWWFGEVQGQKGWFPKSYVKLISG, for which the abundance fitness was 0 ± 0.047.

QGEKVEGLQAQALYPWRAKKHNHLNFNKNDVITVLEQQDMWWFGEVQGQKGWFPKSYVKLISG: the abundance fitness was 0.01 ± 0.079.

With QGEKVEGLQAQALYPWRAKKENHLNFNKNDVITVLEQQDMWWFGEVQGQKGWFPKSYVKLISG, the abundance fitness is -0.096 ± 0.12.

With QGEKVEGLQAQALYPWRAKKCNHLNFNKNDVITVLEQQDMWWFGEVQGQKGWFPKSYVKLISG, the abundance fitness was -0.167 ± 0.045.

On to QGEKVEGLQAQALYPWRAKKNNHLNFNKNDVITVLEQQDMWWFGEVQGQKGWFPKSYVKLISG, for which the abundance fitness is -0.265 ± 0.15.

On to QGEKVEGLQAQALYPWRAKKRNHLNFNKNDVITVLEQQDMWWFGEVQGQKGWFPKSYVKLISG, for which the abundance fitness is -0.125 ± 0.056.

Take QGEKVEGLQAQALYPWRAKKTNHLNFNKNDVITVLEQQDMWWFGEVQGQKGWFPKSYVKLISG: the abundance fitness was -0.03 ± 0.1.

With QGEKVEGLQAQALYPWRAKKDLHLNFNKNDVITVLEQQDMWWFGEVQGQKGWFPKSYVKLISG, the abundance fitness was -0.279 ± 0.17.

Turning to QGEKVEGLQAQALYPWRAKKDPHLNFNKNDVITVLEQQDMWWFGEVQGQKGWFPKSYVKLISG, the abundance fitness amounted to 0.037 ± 0.2.

Take QGEKVEGLQAQALYPWRAKKDSHLNFNKNDVITVLEQQDMWWFGEVQGQKGWFPKSYVKLISG: the abundance fitness is 0.036 ± 0.11.

As to QGEKVEGLQAQALYPWRAKKDWHLNFNKNDVITVLEQQDMWWFGEVQGQKGWFPKSYVKLISG, the abundance fitness was -0.172 ± 0.14.

For the variant QGEKVEGLQAQALYPWRAKKDQHLNFNKNDVITVLEQQDMWWFGEVQGQKGWFPKSYVKLISG, the abundance fitness was 0.015 ± 0.15.

As to QGEKVEGLQAQALYPWRAKKDKHLNFNKNDVITVLEQQDMWWFGEVQGQKGWFPKSYVKLISG, the abundance fitness was determined as 0.022 ± 0.12.

Consider QGEKVEGLQAQALYPWRAKKDVHLNFNKNDVITVLEQQDMWWFGEVQGQKGWFPKSYVKLISG, for which the abundance fitness is -0.313 ± 0.11.

For the variant QGEKVEGLQAQALYPWRAKKDHHLNFNKNDVITVLEQQDMWWFGEVQGQKGWFPKSYVKLISG, the abundance fitness was -0.301 ± 0.25.

With QGEKVEGLQAQALYPWRAKKDCHLNFNKNDVITVLEQQDMWWFGEVQGQKGWFPKSYVKLISG, the abundance fitness stood at 0.051 ± 0.18.

In the case of QGEKVEGLQAQALYPWRAKKDAHLNFNKNDVITVLEQQDMWWFGEVQGQKGWFPKSYVKLISG, the abundance fitness was -0.118 ± 0.11.

QGEKVEGLQAQALYPWRAKKDRHLNFNKNDVITVLEQQDMWWFGEVQGQKGWFPKSYVKLISG: the abundance fitness is -0.142 ± 0.079.

For QGEKVEGLQAQALYPWRAKKDTHLNFNKNDVITVLEQQDMWWFGEVQGQKGWFPKSYVKLISG, the abundance fitness came to 0.003 ± 0.14.

As for QGEKVEGLQAQALYPWRAKKDGHLNFNKNDVITVLEQQDMWWFGEVQGQKGWFPKSYVKLISG, the abundance fitness is -0.018 ± 0.074.

With QGEKVEGLQAQALYPWRAKKDMHLNFNKNDVITVLEQQDMWWFGEVQGQKGWFPKSYVKLISG, the abundance fitness was -0.4 ± 0.18.

For QGEKVEGLQAQALYPWRAKQDNHLNFNKNDVITVLEQQDMWWFGEVQGQKGWFPKSYVKLISG, the abundance fitness was -0.171 ± 0.066.

QGEKVEGLQAQALYPWRAKDDNHLNFNKNDVITVLEQQDMWWFGEVQGQKGWFPKSYVKLISG: the abundance fitness was -0.097 ± 0.056.

In the case of QGEKVEGLQAQALYPWRAKADNHLNFNKNDVITVLEQQDMWWFGEVQGQKGWFPKSYVKLISG, the abundance fitness came out at 0.001 ± 0.049.

Regarding QGEKVEGLQAQALYPWRAKNDNHLNFNKNDVITVLEQQDMWWFGEVQGQKGWFPKSYVKLISG, the abundance fitness was 0.053 ± 0.054.

Take QGEKVEGLQAQALYPWRAKSDNHLNFNKNDVITVLEQQDMWWFGEVQGQKGWFPKSYVKLISG: the abundance fitness is -0.011 ± 0.039.

Regarding QGEKVEGLQAQALYPWRAKYDNHLNFNKNDVITVLEQQDMWWFGEVQGQKGWFPKSYVKLISG, the abundance fitness was -0.15 ± 0.056.

With QGEKVEGLQAQALYPWRAKRDNHLNFNKNDVITVLEQQDMWWFGEVQGQKGWFPKSYVKLISG, the abundance fitness is -0.078 ± 0.04.

Turning to QGEKVEGLQAQALYPWRAKMDNHLNFNKNDVITVLEQQDMWWFGEVQGQKGWFPKSYVKLISG, the abundance fitness was -0.06 ± 0.072.

For QGEKVEGLQAQALYPWRAKWDNHLNFNKNDVITVLEQQDMWWFGEVQGQKGWFPKSYVKLISG, the abundance fitness was -0.156 ± 0.06.

In the case of QGEKVEGLQAQALYPWRAKFDNHLNFNKNDVITVLEQQDMWWFGEVQGQKGWFPKSYVKLISG, the abundance fitness was -0.101 ± 0.059.

Take QGEKVEGLQAQALYPWRAKVDNHLNFNKNDVITVLEQQDMWWFGEVQGQKGWFPKSYVKLISG: the abundance fitness was -0.117 ± 0.043.
